This series in a line: amyloid nucleation score (Sup35N fusion, yeast selection) (log enrichment); library NNK3; higher = more nucleation; inactive = no reads after selection. In a few lines:
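Three technical output replicates were used for random libraries. Psi-negative yeast expressing peptides of 20 random codons fused to Sup35N were induced with 100 μM copper sulfate for 24 hours and grown 7 days at 30°C on medium lacking adenine and uracil, and input and output plasmid inserts were Illumina-sequenced, excluding sequences with under 100 input reads. The nucleation score is the DiMSum log enrichment of output over input reads, centred on the mode score of non-aggregating sequences.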

± gives the uncertainty stated by the source.

Take AIVIRLNSVYYYGCGWLLNR: the amyloid nucleation score result was “inactive”.
Regarding QGNCLFVKVG, the amyloid nucleation score result was “inactive”.
Next, IETAGSTHSSTWGDYSNRLC: “inactive”; PRISQEDVFARTARVDLGLQ: “inactive”.
In the case of NHLMTFLVWWLMIALLPHLD, the amyloid nucleation score entry is “inactive”.
As for SAIPKGKATITFPPLKSFVR, the amyloid nucleation score came to 1.02 ± 0.13.
Then RGQCVPDAGQVRNGTCMRV, with “inactive”.
Then LNIIP, with “inactive”; and CMVNFS, with “inactive”.
On to MKEDSSYHWRLPHVTSTFVG, for which the amyloid nucleation score entry was “inactive”.
Then IVWASTWTCCTN, with 2.73 ± 0.049; and DAKKNLLVGVFCHYRSSQER, with “inactive”; and ANHCLCRGSKYLRKRVNLAI, with “inactive”.
Then HRFSVWSEYCILIFRLQHRP, with “inactive”; and IVYYGVTGLTRGFSEVRKIS, with “inactive”.
Next, ADLPVIHNNKRLVVVWHWLN: “inactive”; AFPTVLLHWRN: “inactive”; SFWTQ: “inactive”.
For HRLVRLSVRMSRRTYS, the amyloid nucleation score entry is “inactive”.
For ANKYASRFVYSISDLSWTIW, the amyloid nucleation score result is “inactive”.
In the case of VYCLFVTCLKGINQWMHDKS, the amyloid nucleation score entry was “inactive”.
On to DFDAFRFIHVVSWFGFTIYP, for which the amyloid nucleation score entry is “inactive”.
Next, SYSQKKRHVSKSTGSRAWQA: “inactive”; NSCQGE: “inactive”; TLLIRCYPYIMLYRFAASTD: “inactive”.
Then YRSEGSWHDDSQSKKWWSGV, with “inactive”.
Turning to NTWILNC, the amyloid nucleation score entry was “inactive”.
Consider KVGFHHDTVLAGSNQRVLFF, for which the amyloid nucleation score is -0.354 ± 0.88.
Then NDFLCI, with “inactive”; and AGYNYASKSNTLESQTACCS, with “inactive”; and KFLLTWK, with “inactive”.
As to WYNNYFRQVPSCVKDGRSHP, the amyloid nucleation score entry was “inactive”.
Next, IERGSDFLLHAMAYSFIGCL: -0.416 ± 1.1.
Next, IYTVWMAKGVTPVQKGPSRY: “inactive”; SPDTARTH: “inactive”.
Regarding KSNFGLVSSPMVFSYCSYTN, the amyloid nucleation score was determined as 0.364 ± 0.35.
Then LIFRRCLCNSSCYDLIAGRG, with “inactive”; and AALHKRTAAQNVPKELGLTM, with 0.227 ± 0.63.
Next, NPSVPTQTPVDMWACTKG: “inactive”.
In the case of MCEGLEFLNTK, the amyloid nucleation score entry was “inactive”.
On to HSRMWVTGLVSCVSGYMQVV, for which the amyloid nucleation score entry is “inactive”.
Next, YPYSSVTRNILCVENRCTGW: “inactive”; DDGDVNDGRTWFIL: “inactive”; IMNCVLMKDIWYSVFNHR: 2.44 ± 0.067.
Take WPAAQVNQIHYCVGLNNYTW: the amyloid nucleation score entry was “inactive”.
ICCTSS: the amyloid nucleation score result is “inactive”.
Next, SSAELV: “inactive”.
Then SCAKQLCYHGFLMGH, with “inactive”; and MVQTKMSQFKSFEFARVMWH, with “inactive”; and MLFSIICNFGNKFLTYKEFT, with 0.89 ± 0.24.
For the substance GSLKPMFDRSCFFNIKAIML, the amyloid nucleation score entry is “inactive”.
Next, QICHRGEGFWPINSSIRKVV: “inactive”.
Then VMRLHRCKELVCDSIYTLRG, with “inactive”; and ALRGWILWW, with “inactive”.
Next, LPDEEHVRYVCYLYDM: “inactive”; LSFVCTEETHGTNDSAGYNF: “inactive”; RPTGYQVTYEMRRSGG: “inactive”.
FLGFEYILIAFRVGQYYLTG: the amyloid nucleation score entry is “inactive”.
Then LSDYLGYDG, with “inactive”.
Then CSLLGKMLTYNSDYGFQLNY, with “inactive”.
Next, WRSKLLM: “inactive”.
Take AVICYS: the amyloid nucleation score result is “inactive”.
Next, TQESRDIGFTAPRGRICTQG: “inactive”; WSDWRLIKFNFRRSYLCLLW: “inactive”; VTSNSDRT: “inactive”.
Next, NSFSRINKDIISSNSVG: “inactive”; WETLLKPWQA: “inactive”; QDHDVSYSSCPGYSVMVMEG: -0.399 ± 0.8.
Consider PPPCKYLPAEVGLLFKSSLG, for which the amyloid nucleation score result is “inactive”.
Next, QPDFLSWVDACVNKVVYWVK: -0.421 ± 0.98.
Then YFNYSLFISVCS, with “inactive”; and HVFYIVYSFISLRNHVAYLS, with “inactive”; and MYTKNPSVSILCFDENGERA, with “inactive”.
Next, CIRSS: “inactive”.
As to VSEFRRVYFSAQFSRVGNSC, the amyloid nucleation score result was “inactive”.
Then PNHELYM, with “inactive”; and CFAKCFMKNLRSIGRVFLMG, with “inactive”; and IFGFDYIAPFFCVTFGIRRV, with “inactive”.
Next, LCPHPPFLCLVQQRFTTGSG: -0.123 ± 0.33; WVWMTETVLWFRYKQVACGW: “inactive”; KNYNNYMVSSNNLLVDIWLV: 1.47 ± 0.12.
Then CGGLHQHNLMRRCRWMKPGE, with “inactive”; and YTFLSVAFLD, with “inactive”; and YKFEHVIFWNSFLNIKVEFS, with 1.56 ± 0.068.
As to CWAPHPKDRKPVRGNYSVHN, the amyloid nucleation score result was “inactive”.
Next, YSLSINCMFRYRSFSDFIDN: 0.992 ± 0.2.
Then ESNVVPLNSHR, with “inactive”.
Then YIGRRNMPNFSSMWMWSQGK, with “inactive”; and ECVCCRYYLVCGGPILRQDL, with “inactive”.
Consider ATQLCCIVCRGLGPGMGEES, for which the amyloid nucleation score entry is “inactive”.
Then KIILEIAMRTSLCRPTSSYL, with 1.03 ± 0.099; and AIHTSPLIIPPNRFVRYRNR, with “inactive”; and NCMFWGCVTLRADFVRTINR, with 1.5 ± 0.14.
Then LSCHTKETFPDDG, with “inactive”; and CYVFIEDLTDGMSCRMLFSH, with “inactive”.
Next, VQGIPELALMLSRARGRGV: “inactive”.
CEVGQCQGYVELLSYIHYNS: the amyloid nucleation score result is “inactive”.
Next, LLRIPGF: “inactive”.
Then RFQFIEFSSTVSSGGWTFFI, with -0.165 ± 0.39.
Next, NHLVGLNMSISMCDSLNSVF: “inactive”; LVNCISIVLFPECNKSLLHR: 2.35 ± 0.077; RAPRVVIGCSMYMGMFSELE: 0.772 ± 0.14.
Consider YGYVIPSSQLPSWTLQRY, for which the amyloid nucleation score entry is “inactive”.
Next, QFLKGDCRYLDPGMDLDRG: “inactive”.
Next, LIARALFNSKWQDTSLSL: “inactive”.
ARLSLWS: the amyloid nucleation score came to 0.733 ± 0.31.
Next, CNYCALLTCLRGMPN: 1.16 ± 0.12.
Then SWISR, with “inactive”.
Then CSSRMVFLRHLAGFLWGRPP, with 0.038 ± 0.85; and VLLFC, with “inactive”; and NLVAMVYSLLSSNWKEVISK, with -0.406 ± 0.8.
CTRHLQMFVNIF gave an amyloid nucleation score of 2.23 ± 0.056.
Next, VVATILLVHPPVKHWSCDLM: -0.859 ± 0.73.
Next, SYYTYVFTIVTPRKTNLWSG: 0.64 ± 0.28.
Then CIDQTTLKHTLDNCLIFF, with “inactive”; and VNVIDLFGFQPSNRLTGNVR, with “inactive”; and LLGSSFFIRLFWTSSSFAAK, with “inactive”.
Consider HGERSDKMLDSGSPYMAPSG, for which the amyloid nucleation score entry is “inactive”.
As for LIRQRLDRLVQHFVDFRVFF, the amyloid nucleation score entry was “inactive”.
As for TRLCFIAVPLSFFMVWDTSR, the amyloid nucleation score result is “inactive”.
Next, VGNFSFD: 0.845 ± 0.16; RRAGNKWYVR: “inactive”; FMPPFASN: “inactive”.
Next, YYWLLIGLLFRVLLMLVQGK: “inactive”; RPRLYFLTSNLKTQCAVHNA: “inactive”; KDKQVV: “inactive”.
Then VMYVVYFHELVYYR, with “inactive”.
In the case of RYNGTGIKYWKTY, the amyloid nucleation score result was “inactive”.
Consider LVFKYSKAVSTYWYEGDQVT, for which the amyloid nucleation score result is “inactive”.
The substance HFETNTVFQVFEICIVSCCY displayed an amyloid nucleation score of 2.34 ± 0.067.
Next, VPGMSAVCKMGLLLDVGVHE: “inactive”; WANNSCAIRGNNSPMGGSVA: “inactive”.

The record behind these values is the supplement of paper PMC12042874.
